Assay results reported in patent publication US20150125397A1, “DUAL SPECIFIC BINDING PROTEINS DIRECTED AGAINST IMMUNE CELL RECEPTORS AND AUTOANTIGENS” (ABBVIE INC., priority 2013, published 2015).

B1: DVD3754: DVD-Ig: VD1 DNA(PA4), SL linker, VD2 mIgM (B7.6); heavy SEQ ID NO 54, light 55 (antibody)
heavy: EVQLVESGGGLVKPGGSLKLSCVASGFTFSTYAMSWVRQTPTKRLEWVATISRGGVSTYYPDTVKGRFTISRDNAKNTLYLQMSSLRSEDTAMYYCARPPTIVTTWFAYWGQGTLVTVSSASTKGPQVQLKESGPGLVKPSLTLSLTCTVSGFSLNGYGVIWVRQPPGKGLEWMGVIWGNGNTNYNSTLKSRLSISRDTSKSQVFLKMNNLQTEDTAMYFCARSENYYSSPGYFAYWGQGTLVTVSS
light: DVVMTQTPLSLPVSLGDQASISCRSSQSLVHSNGNTYLHWYLQKPGQSPKLLIYKVSNRFSGVPDRFSGSGSGTDFTLKISRVEAEDLGAYFCSQSTHVPYTFGGPTRLEIKRTVAAPSVFIFPPNTVMTQSPTSMFISVGDRVTMNCKASQNVGSDVDWYQQKTGQSPKLLISGTSNRYTGVPDRFTGSGSGTDFTLTISNMQAEDLAVYYCLQYNYNPTFGAGTKLELKR
B2: DVD3759: DVD-Ig: VD1 mIgM (B7.6), SL linker, VD2 DNA(PA4); heavy SEQ ID NO 64, light 65 (antibody)
heavy: QVQLKESGPGLVKPSLTLSLTCTVSGFSLNGYGVIWVRQPPGKGLEWMGVIWGNGNTNYNSTLKSRLSISRDTSKSQVFLKMNNLQTEDTAMYFCARSENYYSSPGYFAYWGQGTLVTVSSASTKGPEVQLVESGGGLVKPGGSLKLSCVASGFTFSTYAMSWVRQTPTKRLEWVATISRGGVSTYYPDTVKGRFTISRDNAKNTLYLQMSSLRSEDTAMYYCARPPTIVTTWFAYWGQGTLVTVSS
light: NTVMTQSPTSMFISVGDRVTMNCKASQNVGSDVDWYQQKTGQSPKLLISGTSNRYTGVPDRFTGSGSGTDFTLTISNMQAEDLAVYYCLQYNYNPTFGAGTKLELKRTVAAPSVFIFPPDVVMTQTPLSLPVSLGDQASISCRSSQSLVHSNGNTYLHWYLQKPGQSPKLLIYKVSNRFSGVPDRFSGSGSGTDFTLKISRVEAEDLGAYFCSQSTHVPYTFGGPTRLEIKR

Legend:
DNA = test: Antinuclear antibody (ANA) test; type: binding; design: key to ANA score, relative result: (X)-(XXX) indicates relative results; (XX): (X)-(XXX) indicates relative results; (X)-(XXX) indicates relative results; settings: for ANA score / ANA score, relative result: ANA staining at 10 μg/ml
Experimental: The cloned BWR4 and PA4 antibodies as well as the DVD-Ig proteins were tested for ANA reactivity using the ANA test kit. Briefly, the DVD-Ig proteins and antibodies were diluted to […] in blocking buffer (1% BSA in PBS). The DVD-Ig proteins and antibodies were added to separate wells of an ANA slide at 50 μl/well and incubated in a moist chamber for 2 hours at room temperature (RT). The wells were then washed 3× with PBS. To detect bound antibodies, Alexa Fluor 488 conjugated goat α-human IgG (α-hIgG) was then added at a dilution of 1:1,000 and the slide incubated in a moist chamber for 1 hour. Unbound detecting antibody was removed by immersing the slide in a jar containing PBS and incubating for 10 minutes at RT with gentle rocking. The prior step was repeated 2× and 10 μl of Prolong® Gold Antifade was added to each well and a 24 mm×60 mm #1 cover glass seated on top. The covered slide was incubated overnight at RT and then sealed by applying clear nail polish to the edges. Binding of the DVD-Ig proteins and antibodies to the slides was assessed by fluorescence microscopy.
DVD-Ig proteins DVD3751-DVD3760 were characterized by antinuclear antibody (ANA) staining at 10 μg/ml according to the method of Example 2.4.
ANA: HEp-2 human tissue culture substrate slides were incubated with 5 μg/ml of the anti-DNA-IgG2a or the DVD-Ig™ binding protein for 2 hours at RT. The slides were washed and bound antibodies were detected with Alexa-488 goat anti-human antibody or DyLight 488 goat anti-mouse antibody.

AM14 WT B cells = test: [3H]thymidine incorporation, BCR/TLR9 stimulation of AM14 WT B cells; type: cell-based, mouse; design: key to 3H incorporation AM14 WT, relative result: (X)-(XXX) indicates relative results; (XX): (X)-(XXX) indicates relative results; (X)-(XXX) indicates relative results; level of 3H incorporation / 3H incorporation AM14 WT: dose or concentration left out as unconfirmed; settings: for 3H incorporation AM14 WT: 24 hours, then 6 hours pulse
Text: (§1) The AM14 B cell receptor (BCR) transgenic mouse has been described previously (Sweet et al. (2010) Autoimmun 43(8): 607-18). Briefly, AM14 is a BCR comprising the AM14 heavy chain and the Vk8 light chain that recognizes murine IgG2a (mIgG2a) of the “a” allotype. Between 95-98% of B cells in a mouse positive for the AM14 heavy chain and Vk8 light chain express the AM14 BCR. To generate AM14 B cells that are deficient in TLR9, TLR7 or FcγRIIB, the AM14 and Vk8 genes were bred to the appropriate knock out mice.
(§2) Primary murine B cells were purified by positive selection using BD Imag™ CD45R/B220 magnetic particles (BD Biosciences, San Jose, Calif.). Briefly, B cells were cultured in RPMI containing, pencillin-streptomycin, β-mercaptoethanol, and 5% heat-inactivated fetal calf serum (FCS) in 96 well flat bottom plates at a density of 4×10^5 cells/well. For stimulation through the BCR and TLR9, B cells were treated with a titration of 0.3 μg/ml-0.03 μg/ml of PA4 or 5 μg/ml to 0.15 μg/ml of a DVD-Ig protein (DVD3751, DVD3752, DVD3754, DVD3755, DVD3759 and DVD3760), unless otherwise noted. Cells were also treated with 1 μg/ml 1826, an experimental ligand for TLR9, as a control. After 24 hours, the cells were pulsed for 6 hours with [3H]thymidine (Perkin Elmer, Waltham Mass.). Incorporation of [3H]thymidine was quantified via a liquid scintillation beta counter (Trilux 1450 MicroBeta, PerkinElmer) according to standard methods.
(§3) DVD-Ig proteins DVD3751-DVD3760 were characterized by ^3H incorporation at […] according to the method of Example 2.6.

AM14 TLR9−/− B cells = test: [3H]thymidine incorporation, BCR/TLR9 stimulation of AM14 TLR9-/- B cells; type: cell-based, mouse; settings: at 5 mg/ml; 24 hours, then 6 hours pulse
Text: as §1, §2, §3

Molecule | level of ANA staining (DNA; 10 μg/ml, among DVD3751-DVD3760) | ANA score (DNA) | ANA score, relative result (DNA) | ANA, immunofluorescent HEp-2 staining (DNA; Example 6, 5 μg/ml, FIG. 8C) | 3H incorporation AM14 WT, relative result (AM14 WT B cells) | 3H incorporation AM14 WT (AM14 WT B cells) | level of 3H incorporation (AM14 WT B cells; among DVD3751-DVD3760) | 3H incorporation AM14 TLR9−/− (AM14 TLR9−/− B cells)
B1 | highest level of staining | 4.5 | (XXX) | high ANA score | (XXX) | (35214) | highest level of ^3H incorporation | (1597)
B2 | – | 3.5 | (XX) | – | (XX) | (18554) | – | (970)
